Reference: article PMC9865026 (Pathogens, 2022)

Biological target: A/New Caledonia/20/1999 (NC H1N1) recombinant hemagglutinin (HA) (Influenza A virus A/New …, UniProt Q6WG00, strain)
Experiment: ELISA
Conditions: both partners purified

B1: FI6 human IgG1 (antibody, V domains shown)
VH: QVQLVESGGGVVQPGRSLRLSCAASGFTFSTYAMHWVRQAPGKGLEWVAVISYDANYKYYADSVKGRFTISRDNSKNTLYLQMNSLRAEDTAVYYCAKDSQLRSLLYFEWLSQGYFDYWGQGTLVTVSS
VL: not shown
notes: also called native human IgG1; source: HEK-293, transfected (pTT5), purified from cell culture supernatant (MabSelect); copies: 2 + 2
B1: binds.
